This is an account of results in paper PMC8790125.

The Kd is a measure of binding affinity in units of concentration. Higher therefore signals lower affinity. The term stoichiometry N denotes a count of units in the complex or per binding partner.

The test has as its target Rae1–Nup98_(GLEBS) complex, P78406. In words: ITC.

Molecule KPLTKKNYSELDDEEPMELDYP (modifications not checked) [SARS-CoV-1 Orf6CTT (22-mer peptide, residues 42–63 of SARS-CoV-1 Orf6)] yielded a Kd of 278 nM and a stoichiometry N of 1.
